# Reference: patent publication US20210403582A1 (JACOBIO PHARMACEUTICALS, published 2021)
# T1: human OSM (human, UniProt P13725 26-221, limits assumed)
# T1 sequence (looked up): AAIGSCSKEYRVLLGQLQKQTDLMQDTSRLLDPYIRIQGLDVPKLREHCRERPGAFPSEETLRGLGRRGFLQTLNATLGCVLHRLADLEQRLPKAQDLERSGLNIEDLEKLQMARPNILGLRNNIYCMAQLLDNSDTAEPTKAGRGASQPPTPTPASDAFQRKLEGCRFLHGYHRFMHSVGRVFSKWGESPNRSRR
# T2: human CNTF (human, UniProt P26441 1-200, limits assumed)
# T2 sequence (looked up): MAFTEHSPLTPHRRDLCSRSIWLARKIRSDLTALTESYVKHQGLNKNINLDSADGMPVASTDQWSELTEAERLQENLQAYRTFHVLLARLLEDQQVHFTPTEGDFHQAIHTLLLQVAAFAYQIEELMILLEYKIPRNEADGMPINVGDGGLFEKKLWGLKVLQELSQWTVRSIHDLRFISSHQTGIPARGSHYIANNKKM
# Columns and labels:
# human LIF protein [1] = target: T3, human LIF protein (human, UniProt P15018 23-202); test: BLI (Gator), antibody on anti-human Fc biosensor, human LIF in solution
# T3 construct: Bought recombinant protein (Sino Biological / Yiqiao Shenzhou 14890-HNAH) in most assays; also called recombinant human LIF protein; rhLIF
# T3 sequence (P15018 23-202 limits assumed): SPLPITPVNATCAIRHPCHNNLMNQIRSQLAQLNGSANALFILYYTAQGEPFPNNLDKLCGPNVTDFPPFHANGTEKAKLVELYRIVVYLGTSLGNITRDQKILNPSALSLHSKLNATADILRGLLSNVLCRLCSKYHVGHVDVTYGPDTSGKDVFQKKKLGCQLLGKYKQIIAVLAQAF
# Protocol: The affinity of anti-LIF antibody to human LIF protein was determined using Gator. The anti-human LIF antibody was first diluted to 5 ug/mL with PBS and then added to A-F wells in second column of the 96-well plate (200 μL per well). […] PBS was added to A-F wells in the first and third columns (200 μL per well). The 96-well plates were placed into the instrument and detected with anti-human Fc biosensor.
# human LIF protein [2] = target: T3, human LIF protein; test: ELISA, antigen coated 0.5 ug/ml, 293S supernatant non-heated, antibody 1 ug/mL
# Protocol: (§1) Each well was coated with 100 μL of 0.5 μg/ml antigen and incubate overnight at 4° C., and the plates were washed three times with 300 μL of Wash Buffer. The plates were closed with 200 μL of Closure Buffer (2% bovine serum albumin) for 60 min at room temperature. The plates were washed three times with 300 μL of Wash Buffer. 100 μL of diluted anti-LIF antibody at different concentrations was added to each well and incubate for 1 hour at room temperature. The plates were washed 4 times with 300 μL of Wash Buffer. 100 μL of HRP-labeled goat anti-human Fc secondary antibody at a dilution of 1:5000 was added and incubate for 1 hour at room temperature. The plates were washed 6 times with 300 μL of Wash Buffer. 100 μL of H₂O₂-Amplx Color Development Solution was added for developing the color for 10 min at room temperature under dark conditions. The OD 450 value was read by an enzyme marker. Heat treatment: the expression medium was heated on the PCR machine at 70° C. for 5 min and then rapidly cooled to room temperature. Perform subsequent ELISA assays as above.
# human LIF protein [3] = target: T3, human LIF protein; test: ELISA, antigen coated 0.5 ug/ml, 293S supernatant non-heated, antibody 0.2 ug/mL
# Protocol: as §1
# human LIF protein [4] = target: T3, human LIF protein; test: ELISA, antigen coated 0.5 ug/ml, 293S supernatant non-heated, antibody 0.04 ug/mL
# Protocol: as §1
# human LIF protein [5] = target: T3, human LIF protein; test: ELISA, antigen coated 0.5 ug/ml, 293S supernatant heated 70 C 5 min, antibody 1 ug/mL
# Protocol: as §1
# human LIF protein [6] = target: T3, human LIF protein; test: ELISA, antigen coated 0.5 ug/ml, 293S supernatant heated 70 C 5 min, antibody 0.2 ug/mL
# Protocol: as §1
# human LIF protein [7] = target: T3, human LIF protein; test: ELISA, antigen coated 0.5 ug/ml, 293S supernatant heated 70 C 5 min, antibody 0.04 ug/mL
# Protocol: as §1
# human LIF protein [8] = target: T3, human LIF protein; test: ELISA (non-heated), purified IgG on antigen coated at 0.5 µg/mL, 3-fold dilutions
# human LIF protein [9] = target: T3, human LIF protein; test: cell-based or functional assay
# human OSM = target: T1, human OSM; test: ELISA, human OSM coated at 1 µg/mL, HRP goat anti-mouse Fab, A450
# Protocol: (§2) After washed four times with PBST, HRP-labeled goat anti-mouse Fab secondary antibodies were added and incubated at room temperature for 1 h. After washed four times with PBST, TMB colored solution was added and color developing for 10 min at room temperature. The absorption value at 450 nm was read by the enzyme maker. The data were analyzed and plotted using Origin pro 9 software.
# human IL-6 = human IL-6 (human, UniProt P05231 30-212, limits assumed); test: ELISA, human IL-6 coated at 1 µg/mL, HRP goat anti-mouse Fab, A450
# Chain of human IL-6 (P05231 30-212 limits assumed): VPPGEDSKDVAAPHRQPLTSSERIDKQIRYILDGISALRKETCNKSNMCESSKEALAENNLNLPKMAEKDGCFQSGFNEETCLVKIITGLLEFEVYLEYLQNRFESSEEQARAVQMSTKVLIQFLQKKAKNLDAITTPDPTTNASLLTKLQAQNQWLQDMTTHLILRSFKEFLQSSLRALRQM
# Protocol: as §2
# human CNTF = target: T2, human CNTF; test: ELISA, human CNTF coated at 1 µg/mL, HRP goat anti-mouse Fab, A450
# Protocol: as §2
# human LIF protein [10] = target: T3, human LIF protein; test: competition ELISA, LIF coated, competitor LIFR-Fc 0.6125 ug/mL detected with anti-human Fc
# human LIF protein [11] = target: T3, human LIF protein; test: ELISA (heated), antibody kept at 70 °C for 5 min before the ELISA, antigen coated at 0.5 µg/mL
Binder,Kd (human LIF protein [1]),koff (human LIF protein [1]),kon (human LIF protein [1]),ELISA signal (human LIF protein [2]),ELISA signal (human LIF protein [3]),ELISA signal (human LIF protein [4]),ELISA signal (human LIF protein [5]),ELISA signal (human LIF protein [6]),ELISA signal (human LIF protein [7]),EC50 (read off the curve) (human LIF protein [8]),"EC50, reversal of proliferation inhibition of M1 cells (CCK-8) (human LIF protein [9])",binding result (human OSM),binding result (human IL-6),binding result (human CNTF),IC50 (human LIF protein [10]),EC50 (read off the curve) (human LIF protein [11])
"38E10E1C11 chimeric antibody (antibody, human IgG1, kappa, Mouse variable regions of 38E10E1C11 with human IgG1 / kappa constant regions; also called 38E Chimeric; 38E chimeric antibody) heavy: not shown light: DIHMTQSPASLSASVGETVTITCRASENIYSYLAWYQQKQGKSPQLLVYNAKTLAEGVPSRFSGSGSGTQFSLKINSLQPEDFGSYYCQHHYVTPLTFGAGTKLELKRTVAAPSVFIFPPSDEQLKSGTASVVCLLNNFYPREAKVQWKVDNALQSGNSQESVTEQDSKDSTYSLSSTLTLSKADYEKHKVYACEVTHQGLSSPVTKSFNRGEC",0.0233 nM,1.57e-05 s⁻¹,677000 M⁻¹ s⁻¹,11400,10400,6780,10600,8840,4730,~0.07 µg/mL,,,,,,
"38E HuH3L2-m (antibody, mouse IgG1, kappa, Humanized variable regions of 38E HuH3L2 on mouse IgG1 / kappa constant regions) heavy: EVMLVESGGGLVQPGGSLRLSCAASGFIFSSYAMSWVRQAPETRLEWVATISSGGSNTYSPDTVKGRFTISRDNSKNTLYLQMNSLRAEDTAMYYCARYYGYYFDFWGQGTLLTVSSAKTTPPSVYPLAPGSAAQTNSMVTLGCLVKGYFPEPVTVTWNSGSLSSGVHTFPAVLQSDLYTLSSSVTVPSSTWPSETVTCNVAHPASSTKVDKKIVPRDCGCKPCICTVPEVSSVFIFPPKPKDVLTITLTPKVTCVVVDISKDDPEVQFSWFVDDVEVHTAQTQPREEQFNSTFRSVSELPIMHQDWLNGKEFKCRVNSAAFPAPIEKTISKTKGRPKAPQVYTIPPPKEQMAKDKVSLTCMITDFFPEDITVEWQWNGQPAENYKNTQPIMDTDGSYFVYSKLNVQKSNWEAGNTFTCSVLHEGLHNHHTEKSLSHSPGK light: DIHMTQSPSSLSASVGDRVTITCRASENIYSYLAWYQQKPGKSPKLLVYNAKTLAEGVPSRFSGSGSGTDFTLTISSLQPEDFATYYCQHHYVTPLTFGQGTKLEIKRADAAPTVSIFPPSSEQLTSGGASVVCFLNNFYPKDINVKWKIDGSERQNGVLNSWTDQDSKDSTYSMSSTLTLTKDEYERHNSYTCEATHKTSTSPIVKSFNRNEC",,,,,,,,,,,8.93 µg/mL,no binding (tested: 25 ug/ml),no binding (tested: 25 ug/ml),no binding (tested: 25 ug/ml),0.145 µg/mL,
"38E HuH3L4-m (antibody, mouse IgG1, kappa, Humanized variable regions of 38E HuH3L4 on mouse IgG1 / kappa constant regions) heavy: EVMLVESGGGLVQPGGSLRLSCAASGFIFSSYAMSWVRQAPETRLEWVATISSGGSNTYSPDTVKGRFTISRDNSKNTLYLQMNSLRAEDTAMYYCARYYGYYFDFWGQGTLLTVSSAKTTPPSVYPLAPGSAAQTNSMVTLGCLVKGYFPEPVTVTWNSGSLSSGVHTFPAVLQSDLYTLSSSVTVPSSTWPSETVTCNVAHPASSTKVDKKIVPRDCGCKPCICTVPEVSSVFIFPPKPKDVLTITLTPKVTCVVVDISKDDPEVQFSWFVDDVEVHTAQTQPREEQFNSTFRSVSELPIMHQDWLNGKEFKCRVNSAAFPAPIEKTISKTKGRPKAPQVYTIPPPKEQMAKDKVSLTCMITDFFPEDITVEWQWNGQPAENYKNTQPIMDTDGSYFVYSKLNVQKSNWEAGNTFTCSVLHEGLHNHHTEKSLSHSPGK light: DIHMTQSPSSLSASVGDRVTITCRASENIYSYLAWYQQKQGKSPQLLVYNAKTLAEGVPSRFSGSGSGTQFTLKINSLQPEDFATYYCQHHYVTPLTFGQGTKLEIKRADAAPTVSIFPPSSEQLTSGGASVVCFLNNFYPKDINVKWKIDGSERQNGVLNSWTDQDSKDSTYSMSSTLTLTKDEYERHNSYTCEATHKTSTSPIVKSFNRNEC",,,,,,,,,,,6.52 µg/mL,no binding (tested: 25 ug/ml),no binding (tested: 25 ug/ml),no binding (tested: 25 ug/ml),0.103 µg/mL,
"38E HuH2L4 (antibody, human IgG1, kappa, V domains shown, Humanized, human IgG1 / kappa) VH: EVMLVESGGGLVQPGGSLRLSCAASGFIFSSYAMSWVRQAPGTGLEWVATISSGGSNTYSPDTVKGRFTISRDNSKNTLYLQMNSLRAEDTAMYYCARYYGYYFDFWGQGTLLTVSS VL: DIHMTQSPSSLSASVGDRVTITCRASENIYSYLAWYQQKQGKSPQLLVYNAKTLAEGVPSRFSGSGSGTQFTLKINSLQPEDFATYYCQHHYVTPLTFGQGTKLEIKR",,,,11800,10900,6880,10600,9230,5700,~0.07 µg/mL,,,,,,~0.3 µg/mL

# Results, then the binder that gave them:
Kd (human LIF protein [1]),koff (human LIF protein [1]),kon (human LIF protein [1]),ELISA signal (human LIF protein [2]),ELISA signal (human LIF protein [3]),ELISA signal (human LIF protein [4]),ELISA signal (human LIF protein [5]),ELISA signal (human LIF protein [6]),ELISA signal (human LIF protein [7]),EC50 (read off the curve) (human LIF protein [8]),"EC50, reversal of proliferation inhibition of M1 cells (CCK-8) (human LIF protein [9])",binding result (human OSM),binding result (human IL-6),binding result (human CNTF),IC50 (human LIF protein [10]),EC50 (read off the curve) (human LIF protein [11]),Binder
0.0817 nM,4.65e-05 s⁻¹,569000 M⁻¹ s⁻¹,11800,10600,6850,9800,9010,5970,~0.07 µg/mL,,,,,,~0.1 µg/mL,"38E HuH1L1 (antibody, human IgG1, kappa, N297A, Humanized, human IgG1 / kappa) heavy: not shown light: DIQMTQSPSSLSASVGDRVTITCRASENIYSYLAWYQQKPGKSPKLLVYNAKTLAEGVPSRFSGSGSGTDFTLTISSLQPEDFATYYCQHHYVTPLTFGQGTKLEIKRTVAAPSVFIFPPSDEQLKSGTASVVCLLNNFYPREAKVQWKVDNALQSGNSQESVTEQDSKDSTYSLSSTLTLSKADYEKHKVYACEVTHQGLSSPVTKSFNRGEC"
,,,11900,10900,7320,10500,9700,5670,~0.07 µg/mL,,,,,,~0.3 µg/mL,"38E HuH1L4 (antibody, human IgG1, kappa, N297A, V domains shown, Humanized, human IgG1 / kappa) VH: EVMLLESGGGLVQPGGSLRLSCAASGFIFSSYAMSWVRQAPGTGLEWVATISSGGSNTYSPDTVKGRFTISRDNSKNTLYLQMNSLRAEDTAVYYCARYYGYYFDFWGQGTLLTVSS VL: DIHMTQSPSSLSASVGDRVTITCRASENIYSYLAWYQQKQGKSPQLLVYNAKTLAEGVPSRFSGSGSGTQFTLKINSLQPEDFATYYCQHHYVTPLTFGQGTKLEIKR"
